This is an account of results in patent US20020182701.

Numbering of substitutions follows the chain as printed. In names and notes the source's numbering stands.

The data set addresses T1, Met-Gly-Met-Met peptide substrate.
T1 chain: MGMM

B1: N-terminal HA-tagged wild-type yeast MetAP2 (protein)
chain: YPYDVPDYAMTDAEIENSPASDLKELNLENEGVEQQDQAKADESDPVESKKKKNKKKKKKKSNVKKIELLFPDGKYPEGAWMDYHQDFNLQRTTDEESRYLKRDLERAEHWNDVRKGAEIHRRVRRAIKDRIVPGMKLMDIADMIENTTRKYTGAENLLAMEDPKSQGIGFPTGLSLNHCAAHFTPNAGDKTVLKYEDVMKVDYGVQVNGNIIDSAFTVSFDPQYDNLLAAVKDATYTGIKEAGIDVRLTDIGEAIQEVMESYEVEINGETYQVKPCRNLCGHSIAPYRIHGGKSVPIVKNGDTTKMEEGEHFAIETFGSTGRGYVTAGGEVSHYARSAEDHQVMPTLDSAKNLLKTIDRNFGTLPFCRRYLDRLGQEKYLFALNNLVRHGLVQDYPPLNDIPGSYTAQFEHTILLHAHKKEVVSKGDDYGKMRFQMASSLGIILL
For B1, the “Specific activity (MetAP activity on 2 mM Met-Gly-Met-Met)” value was “Specific activity for the wild-type MetAP2 was 11±0.5 U/mg”.

B2: N-terminal HA-tagged yeast MetAP2 (H174A) (protein)
chain: B1 chain with H183A
In the case of B2, the “catalytic activity in vitro” value is reported as “displayed no detectable activity against a peptide substrate (MGMM)”.
